Reference: patent publication US20130338033A1, “Diagnostic and Prognostic Markers for Metastasis” (VIRGINIA COMMONWEALTH UNIVERSITY, priority 2011, published 2013)

B1: rhIGFBP-2: recombinant human IGFBP-2 protein (protein, UniProt P18065 36-325, looked up)
Insulin-like growth …: AEVLFRCPPCTPERLAACGPPPVAPPAAVAAVAGGARMPCAELVREPGCGCCSVCARLEGEACGVYTPRCGQGLRCYPHPGSELPLQALVMGEGTCEKRRDAEYGASPEQVADNGDDHSEGGLVENHVDSTMNMLGGGGSAGRKPLKSGMKELAVFREKVTEQHRQMGKGGKHHLGLEEPKKLRPPPARTPCQQELDQVLERISTMRLPDERGPLEHLYSLHIPNCDKHGLYNLKQCKMSLNGQRGECWCVNPNTGKLIQGAPTIRGDPECHLFYNEQQEARGVHTQRMQ

Tests used:
IGFBP-2 = IGFBP-2 ELISA in conditioned media of FM-516 cells infected with Ad.5/3-mda-9; type: cell-based, human; settings: Ad.5/3-mda-9, 1-5 μM (FIG. 4F)
HuVECs [1] = experiment: HuVEC proliferation (growth kinetics, trypan blue dye exclusion); type: cell-based, human; settings: HuVECs treated with rhIGFBP-2 (FIG. 3B)
Description: FIG. 3 A-H. Pro-angiogenic activity of IGFBP-2. a) Top panel, an antibody-based array comparing the expression levels of regulators of angiogenesis in CM from C8161.9 con-sh and C8161.9-shmda-9 clones was performed as described in Materials and Methods. Bottom panel, graphical representation of the band intensity quantified by densitometry. b) HuVECs were cultured in the presence of recombinant human IGFBP-2 (rhIGFBP-2) protein alone or with neutralizing antibody (NA) and growth kinetics were determined by trypan blue dye exclusion as described in Materials and Methods. Data represents Mean±S.D. c, d & e) HuVECs were treated with rhIGFBP-2 with or without neutralizing antibody (NA) and migration (c), tube formation (d) and vascularization in CAM (e) were analyzed. Data represents Mean±S.D. f) C8161.9 cells were transfected with either scrambled RNA (si-con) or si-IGFBP-2 and CM were analyzed for tube formation on Matrigel (upper panel) and vascularization in CAM (lower panel). g) Pooled clones of C8161.9 cells stably expressing shIGFBP-2 were established and assessed for tumor generation ability in athymic nude mice (n=5, repeated three times). […] Tumor weight was measured at the end of the study. Data represents Mean±S.D. In panel c), d) and g), italicized letters indicate significant differences between groups assessed by Student's t-test (p<0.05). […]

HuVECs [2] = experiment: HuVEC migration through Matrigel; type: cell-based, human; settings: HuVECs treated with rhIGFBP-2 (FIG. 3C)
From the text: FIG. 2A-G. Effect of mda-9/syntenin on the angiogenic phenotype of human vascular endothelial cells (HuVECs). a) Time course analysis of growth of HuVECs in co-culture with either C8161.9-con-sh or C8161.9-shmda-9 clones. b) Analysis of tube formation by HuVECs co-cultured with C8161.9-con-sh or C8161.9-shmda-9 clones on Matrigel coated plates grown in serum-starved media conditions. Left panel, photomicrograph, Right panel, graphical representation of quantification of tube formation. Data represents Mean±S.D. c) HuVEC migration towards melanoma cells. […] HuVECs migration was quantified and graphical representation is provided in the lower panel. […] The assay was scored after 18 h. Photomicrograph (Left panel) and graphical quantification of migration (Right panel) is presented. […] Left panel, photomicrograph, Right panel, graphical representation of quantitation of tube formation. […]
FIG. 3 A-H. Pro-angiogenic activity of IGFBP-2. a) Top panel, an antibody-based array comparing the expression levels of regulators of angiogenesis in CM from C8161.9 con-sh and C8161.9-shmda-9 clones was performed as described in Materials and Methods. […] Data represents Mean±S.D. c, d & e) HuVECs were treated with rhIGFBP-2 with or without neutralizing antibody (NA) and migration (c), tube formation (d) and vascularization in CAM (e) were analyzed. […] Tumor weight was measured at the end of the study. […]

HuVECs [3] = experiment: Capillary-like tube formation by HuVECs on Matrigel; type: cell-based, human; settings: HuVECs treated with rhIGFBP-2 (FIG. 3D)
Description: Tube formation assays were performed as described previously (28) using an In Vitro Angiogenesis Assay Kit (Chemicon). The degree of network formation was quantified using the provider's instruction.

[4] = system: chicken chorioallantoic membrane (CAM); experiment: Chorioallantoic membrane (CAM) neovascularization assay; type: in vivo; settings: HuVECs treated with rhIGFBP-2 (FIG. 3E)
Description: To detect in vivo angiogenesis, we performed CAM assays as described (28). Either cells or CM in a collagen sponge were implanted onto the CAM at day 8 of fertilization. At day 12, CAMs were fixed with 10% formalin; the neovasculature was examined and photographed.
Fertilized chicken eggs (10 eggs per group) was incubated under routine conditions and a square window was opened in the egg shell at the third day of incubation, after removal of 2-3 ml of albumen to detach the shell from the developing CAM. The window was sealed with a glass of the same size and the eggs were returned to the incubator. Either cells or conditioned media with collagen sponge was implanted onto the CAM at day 8 of incubation. At day 12, CAMs were fixed with 10% formalin the neovasculature was examined and photographed.

VEGF-A = VEGF-A expression in HuVECs (real-time PCR, ELISA); type: cell-based, human; settings: HuVECs stimulated with rhIGFBP-2 (FIG. 5A)
Description: (§1) FIG. 5A-G. IGFBP-2 upregulates the expression of vascular endothelial growth factor (VEGF-A) through the AKT pathway in HuVECs. a) The expression of VEGF-A mRNA (top panel) and protein (bottom panel) were measured by real-time PCR and ELISA, respectively, after treating HuVECs with the indicated doses of rhIGFBP-2. Data represents Mean±S.D. b) HuVECs were transfected with VEGF-A promoter luciferease reporter plasmid and treated with the indicated concentrations of rhIGFBP-2. 48 h after transfection, cells were harvested for luciferase assays as described in Materials and Methods. c) HuVECs (1×10^6 cells) were treated or untreated with the specified doses of rhIGFBP-2 for the indicated times and expression of pAKT and AKT was analyzed by Western blotting. d) HuVECs were pre-treated with LY294002 (30 min) and then treated with rhIGFBP-2. Top panel, analysis of the expression of pART and AKT by Western blotting. Bottom panel, analysis the expression of VEGF-A by ELISA in the CM. e) HuVECs were treated with rhIGFBP-2 together with anti-αVβ3 integrin antibody or anti-mouse IgG as control. Top panel, analysis of expression of pAKT and AKT by Western blotting. Bottom panel, analysis of expression of VEGF-A by ELISA in the CM. f & g) HuVECs were treated as in “e” and CM was used to analyze tube formation […] and neovascularization in CAM (g). […]

VEGF-A promoter = VEGF-A promoter luciferase reporter assay in HuVECs; type: cell-based, human; settings: HuVECs treated with rhIGFBP-2, 48 h after transfection (FIG. 5B)
Description: as §1

AKT = AKT activation (pAKT Western blotting) in HuVECs; type: cell-based, human; settings: rhIGFBP-2 treatment of HuVECs (FIG. 5C)
Description: as §1

Molecule	mda-9/syntenin-induced IGFBP-2 expression (IGFBP-2)	HuVEC proliferation (HuVECs [1])	HuVEC migration (HuVECs [2])	HuVEC tube formation (HuVECs [3])	vascularization in CAM [4]	VEGF-A expression, both RNA and protein (VEGF-A)	VEGF-A promoter activity (VEGF-A promoter)	time to AKT activation (AKT)
CC(C)(C)n1nc(-c2ccc(Cl)cc2)c2c(N)ncnc21 [PP-2]	dose-dependent decrease							
B1		significantly stimulated	significantly stimulated	significantly stimulated	significant vascularization	dose-dependently up-regulated	dose-dependently up-regulated	≤ 15 min
